Laboratory results as given in the supplement of paper PMC7125110.
± gives the standard error. This sample holds only a part of the variants without activity.

B1: glmS ribozyme (parent)
chain: AUAAAAGCGCCAGAACUACAGAAAUGUAGUUGACGAGGAGGAGGUUUAUCGAAUUUUCGGCGGAUGCCUCCAAA

Key:
Settings in all cases: with glucosamine-6-phosphate
glucosamine-6-phosphate [1] = variants of: B1; experiment: self-cleavage kobs at 40 uM GlcN6P; higher = faster cleavage; RNA array
Summary of the method: (§1)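 Weighted Michaelis–Menten fits across concentrations supplied kcat and KM, based on kobs from one- or two-exponential decay fits to normalised per-tile medians. The data came from barcoded ribozyme variants transcribed in situ by E. coli RNA polymerase on sequenced MiSeq chips and tracked at 37 °C by a hybridised Cy3 probe. Glucosamine-6-phosphate (40 μM to 10 mM) in HEPES/KCl/Mg(OAc)2 buffer was flowed in.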

glucosamine-6-phosphate [2] = variants of: B1; experiment: self-cleavage kobs at 160 uM GlcN6P; higher = faster cleavage; RNA array
Summary of the method: as §1

glucosamine-6-phosphate [3] = variants of: B1; experiment: self-cleavage kobs at 640 uM GlcN6P; higher = faster cleavage; RNA array
Summary of the method: as §1

glucosamine-6-phosphate [4] = variants of: B1; experiment: self-cleavage kobs at 2500 uM GlcN6P; higher = faster cleavage; RNA array
Summary of the method: as §1

glucosamine-6-phosphate [5] = variants of: B1; experiment: self-cleavage kobs at 10000 uM GlcN6P; higher = faster cleavage; RNA array
Summary of the method: as §1

Row | Variant | self-cleavage kobs at 40 uM GlcN6P (glucosamine-6-phosphate [1]) [s⁻¹] | self-cleavage kobs at 160 uM GlcN6P (glucosamine-6-phosphate [2]) [s⁻¹] | self-cleavage kobs at 640 uM GlcN6P (glucosamine-6-phosphate [3]) [s⁻¹] | self-cleavage kobs at 2500 uM GlcN6P (glucosamine-6-phosphate [4]) [s⁻¹] | self-cleavage kobs at 10000 uM GlcN6P (glucosamine-6-phosphate [5]) [s⁻¹]
1 | G41U U54A | 2.71e-05 ± 1.1e-05 | 0.000104 ± 1.6e-05 | 0.000174 ± 2.6e-05 | 0.000426 ± 7.7e-05 | 0.000144 ± 1.7e-05
2 | A42C U65G C70G C71G | < 1e-05 | – | – | – | –
3 | A42C U65G | < 1e-05 | < 1e-05 | < 1e-05 | – | –
4 | U46G G51C | < 1e-05 | – | < 1e-05 | – | < 1e-05
5 | A42U G59U | < 1e-05 | < 1e-05 | < 1e-05 | – | < 1e-05
6 | A42U G59C | < 1e-05 | < 1e-05 | < 1e-05 | < 1e-05 | < 1e-05
7 | G41U U46A U49C C71G | < 1e-05 | – | – | – | –
8 | U47G C68U | 4.04e-05 ± 8.8e-06 | – | 0.000601 ± 0.00012 | 0.0005 ± 0.00011 | 0.0017 ± 0.00029
9 | U46G C61U | < 1e-05 | < 1e-05 | < 1e-05 | – | –
10 | G43A U47G U54A | < 1e-05 | – | – | – | –
11 | U46A G51U | < 1e-05 | < 1e-05 | < 1e-05 | < 1e-05 | < 1e-05
12 | A42C G43C C50U C67U | < 1e-05 | – | – | – | –
13 | U46C A52C | < 1e-05 | < 1e-05 | – | – | –
14 | G43U U47G | < 1e-05 | < 1e-05 | – | – | –
15 | G44U C68A | < 1e-05 | < 1e-05 | < 1e-05 | – | < 1e-05
16 | U45G U54C G63C A64U U65G | < 1e-05 | – | – | – | –
17 | G43A A64U | < 1e-05 | < 1e-05 | < 1e-05 | < 1e-05 | < 1e-05
18 | G44A A48U U69G | < 1e-05 | – | – | < 1e-05 | –
19 | G43C U46A | < 1e-05 | – | – | < 1e-05 | < 1e-05
20 | U47C U57G | < 1e-05 | – | – | – | –
21 | A42U U46C G51C C61A | < 1e-05 | – | – | – | –
22 | U47G U49G C50G G51A C61A | 9.02e-05 ± 2.3e-05 | – | – | – | 0.000142 ± 3.3e-05
23 | G44A A48C | < 1e-05 | < 1e-05 | < 1e-05 | < 1e-05 | –
24 | G43A G51C G63A C68U | < 1e-05 | – | – | – | –
25 | G43U A53U U65G | < 1e-05 | – | < 1e-05 | – | –
